According to patent publication US20230136228A1 (LAMKAP BIO ALPHA, published 2023):

Assays:
[1] = target: T1, human CEACAM8 (human, UniProt P31997 35-320); assay: flow cytometry, transfected PEAK cells
T1 construct: whole, on cells
T1 sequence (looked up): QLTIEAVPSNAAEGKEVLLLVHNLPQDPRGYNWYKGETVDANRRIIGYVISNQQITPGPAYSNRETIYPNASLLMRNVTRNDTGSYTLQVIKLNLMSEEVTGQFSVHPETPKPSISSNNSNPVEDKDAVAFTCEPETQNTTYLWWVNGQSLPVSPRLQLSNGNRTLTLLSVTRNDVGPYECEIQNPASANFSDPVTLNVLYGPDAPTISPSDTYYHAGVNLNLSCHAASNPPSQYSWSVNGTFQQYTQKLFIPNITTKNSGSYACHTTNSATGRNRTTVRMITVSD
Source text: Vectors encoding the full-length version of human CEACAM 1, 3, 4, 5, 6, 7, 8, 18, 19, 20 and […] are used to express these proteins at the surface of PEAK and/or CHO cells as described in Example 1. Similarly, vectors encoding the full-length version of cyno CEACAM 5 and 6 are also used to express these proteins at the surface of PEAK and/or CHO cells. Non-transfected PEAK and/or CHO cells are used as negative control. Cells are harvested, counted, checked for viability and resuspended at 3×10⁶ cells/ml in FACS buffer (PBS 2% BSA, 0.1% NaN₃). 100 μl of the cell suspension are distributed in V-bottom 96-well plates (3×10⁵ cells/well). The supernatant is removed by centrifugation 3 minutes at 4° C., 1300 rpm and the cells incubated for 15 minutes at 4° C. with increasing concentrations of the antibody according to the invention. The antibodies carrying the anti-CEACAM5 arms to test are diluted in FACS buffer and the concentration range is 30 pM-500 nM. Cells are washed twice with cold FACS buffer and re-incubated for further 15 minutes at 4° C. with a compatible anti-human IgG secondary antibody. Cells are washed twice with cold FACS buffer and resuspended in 300 μl FACS buffer with 1:1500-diluted TOPRO-3 (Invitrogen). Fluorescence is measured using a FACSCalibur™ (BD Biosciences) or a Cytoflex Platform (Beckman Coulter). Dose-response binding curves are fitted using GraphPad Prism8 software. In the same manner, CEACAM1, CEACAM6 and other CEACAMs can be characterized.
For the bispecific antibodies AB17L3-1/N, AB71L3-1/N, AB72L3-1/N, AB73L3-1/N the MFI measured for binding to CEACAM5 transfected cells was found between 29000 and 41000 (Table 2). In contrast MFI found by using PEAK cells transfected with CEACAM 1,3,4,6,8 were found below 1000 with the only exception of a strong signal for AB72L3-1/N on CEACAM8 transfected cells. When MFI values obtained on transfected cells expressing any given CEACAM are divided by the values obtained on WT PEAK cells, “factors to PEAK WT” can be calculated (Table 3).

[2] = target: T2, human CEACAM5 (carcinoembryonic antigen, CEA), cell surface (human, UniProt P06731 35-685); assay: flow cytometry, MKN-45 and/or HPAF-II cells
T2 construct: whole, on cells; also called CD66e
T2 sequence (looked up): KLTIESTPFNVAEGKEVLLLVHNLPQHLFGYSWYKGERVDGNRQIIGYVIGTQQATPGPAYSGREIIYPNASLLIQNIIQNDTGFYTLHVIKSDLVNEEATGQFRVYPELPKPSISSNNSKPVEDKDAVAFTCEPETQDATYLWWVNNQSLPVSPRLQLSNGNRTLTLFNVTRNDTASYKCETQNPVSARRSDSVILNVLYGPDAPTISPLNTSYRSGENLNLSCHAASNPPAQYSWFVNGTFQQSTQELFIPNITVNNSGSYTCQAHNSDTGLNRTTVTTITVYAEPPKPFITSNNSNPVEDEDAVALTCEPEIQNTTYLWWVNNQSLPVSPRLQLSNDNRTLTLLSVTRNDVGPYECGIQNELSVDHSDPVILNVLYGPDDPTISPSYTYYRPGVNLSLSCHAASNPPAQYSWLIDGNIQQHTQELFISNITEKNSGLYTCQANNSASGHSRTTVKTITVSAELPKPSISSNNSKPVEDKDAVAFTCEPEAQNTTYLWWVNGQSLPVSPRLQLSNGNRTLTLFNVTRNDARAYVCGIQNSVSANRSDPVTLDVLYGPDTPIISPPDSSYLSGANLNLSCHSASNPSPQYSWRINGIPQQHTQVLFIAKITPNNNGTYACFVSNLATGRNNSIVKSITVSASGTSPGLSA

[3] = target: T3, human CD3ε (human, UniProt P07766 23-207); assay: flow cytometry, HUT-78 cells
T3 construct: whole, on cells; Present on cells as part of the CD3/TCR complex; also called CD3 epsilon
T3 sequence (P07766 23-207): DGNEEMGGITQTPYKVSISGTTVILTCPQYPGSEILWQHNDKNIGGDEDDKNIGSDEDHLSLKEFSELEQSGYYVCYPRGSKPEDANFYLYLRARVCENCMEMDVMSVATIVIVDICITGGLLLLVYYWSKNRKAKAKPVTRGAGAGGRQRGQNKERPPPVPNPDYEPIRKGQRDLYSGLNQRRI

[4] = target: T3, human CD3ε; assay: flow cytometry, primary CD4+ and CD8+ T-cells

Row | Binder | binding result [1] | binding higher than TCB2014 (at 100 nM) [2] | binding result [3] | binding result [4]
1 | AB17L3-1/N (bispecific antibody, human IgG1, kappa, lambda, L234A L235A, Kappa-lambda body, lead optimization wave 1) heavy: EVQLVESGGGLVQPGGSLKLSCAASGFTFNTYAMNWVRQAPGKGLEWVGRIRSKYNNYATYYADSVKDRFTISRDDSKNTAYLQMNSLKTEDTAVYYCVRHGNFGNSYVSWFAYWGQGTLVTVSSASTKGPSVFPLAPSSKSTSGGTAALGCLVKDYFPEPVTVSWNSGALTSGVHTFPAVLQSSGLYSLSSVVTVPSSSLGTQTYICNVNHKPSNTKVDKRVEPKSCDKTHTCPPCPAPEAAGGPSVFLFPPKPKDTLMISRTPEVTCVVVDVSHEDPEVKFNWYVDGVEVHNAKTKPREEQYNSTYRVVSVLTVLHQDWLNGKEYKCKVSNKALAAPIEKTISKAKGQPREPQVYTLPPSREEMTKNQVSLTCLVKGFYPSDIAVEWESNGQPENNYKTTPPVLDSDGSFFLYSKLTVDKSRWQQGNVFSCSVMHEALHNHYTQKSLSLSPG light 1: EIVLTQSPATLSLSPGERATLSCRASQSVNSNLNWYQQKPGQAPRLLIYHGSNRATGIPARFSGSGSGTDFTLTISSLEPEDFAVYYCQQFDYFKEHNTFGQGTKVEIKRTVAAPSVFIFPPSDEQLKSGTASVVCLLNNFYPREAKVQWKVDNALQSGNSQESVTEQDSKDSTYSLSSTLTLSKADYEKHKVYACEVTHQGLSSPVTKSFNRGEC light 2: QTVVTQEPSLTVSPGGTVTLTCRSSTGAVTTSNYANWFQQKPGQAPRGLIGGTNKRAPGTPARFSGSLLGGKAALTLSGAQPEDEAEYYCALWYKQRWVFGGGTKLTVLGQPKAAPSVTLFPPSSEELQANKATLVCLISDFYPGAVTVAWKADSSPVKAGVETTTPSKQSNNKYAASSYLSLTPEQWKSHRSYSCQVTHEGSTVEKTVAPTECS | no binding (tested: 10 mcg/ml) | ≥ 40% | binds | 
2 | AB1L3-1/N (bispecific antibody, human IgG1, kappa, lambda, L234A L235A, Kappa-lambda body: common heavy chain (hIgG1 L234A+L235A+P329A), kappa CEA light chain AB1, lambda CD3 light chain L3-1 (1A4); also called parental KL bispecific antibody) heavy: EVQLVESGGGLVQPGGSLKLSCAASGFTFNTYAMNWVRQAPGKGLEWVGRIRSKYNNYATYYADSVKDRFTISRDDSKNTAYLQMNSLKTEDTAVYYCVRHGNFGNSYVSWFAYWGQGTLVTVSSASTKGPSVFPLAPSSKSTSGGTAALGCLVKDYFPEPVTVSWNSGALTSGVHTFPAVLQSSGLYSLSSVVTVPSSSLGTQTYICNVNHKPSNTKVDKRVEPKSCDKTHTCPPCPAPEAAGGPSVFLFPPKPKDTLMISRTPEVTCVVVDVSHEDPEVKFNWYVDGVEVHNAKTKPREEQYNSTYRVVSVLTVLHQDWLNGKEYKCKVSNKALAAPIEKTISKAKGQPREPQVYTLPPSREEMTKNQVSLTCLVKGFYPSDIAVEWESNGQPENNYKTTPPVLDSDGSFFLYSKLTVDKSRWQQGNVFSCSVMHEALHNHYTQKSLSLSPG light 1: EIVLTQSPATLSLSPGERATLSCRASQSVNSNLNWYQQKPGQAPRLLIYHGSNRATGIPARFSGSGSGTDFTLTISSLEPEDFAVYYCQQFDLRHEHNTFGQGTKVEIKRTVAAPSVFIFPPSDEQLKSGTASVVCLLNNFYPREAKVQWKVDNALQSGNSQESVTEQDSKDSTYSLSSTLTLSKADYEKHKVYACEVTHQGLSSPVTKSFNRGEC light 2: QTVVTQEPSLTVSPGGTVTLTCRSSTGAVTTSNYANWFQQKPGQAPRGLIGGTNKRAPGTPARFSGSLLGGKAALTLSGAQPEDEAEYYCALWYKQRWVFGGGTKLTVLGQPKAAPSVTLFPPSSEELQANKATLVCLISDFYPGAVTVAWKADSSPVKAGVETTTPSKQSNNKYAASSYLSLTPEQWKSHRSYSCQVTHEGSTVEKTVAPTECS | no binding (tested: 10 mcg/ml) |  |  | 
3 | AB72L3-1/N (bispecific antibody, human IgG1, kappa, lambda, L234A L235A, Kappa-lambda body, lead optimization wave 2) heavy: EVQLVESGGGLVQPGGSLKLSCAASGFTFNTYAMNWVRQAPGKGLEWVGRIRSKYNNYATYYADSVKDRFTISRDDSKNTAYLQMNSLKTEDTAVYYCVRHGNFGNSYVSWFAYWGQGTLVTVSSASTKGPSVFPLAPSSKSTSGGTAALGCLVKDYFPEPVTVSWNSGALTSGVHTFPAVLQSSGLYSLSSVVTVPSSSLGTQTYICNVNHKPSNTKVDKRVEPKSCDKTHTCPPCPAPEAAGGPSVFLFPPKPKDTLMISRTPEVTCVVVDVSHEDPEVKFNWYVDGVEVHNAKTKPREEQYNSTYRVVSVLTVLHQDWLNGKEYKCKVSNKALAAPIEKTISKAKGQPREPQVYTLPPSREEMTKNQVSLTCLVKGFYPSDIAVEWESNGQPENNYKTTPPVLDSDGSFFLYSKLTVDKSRWQQGNVFSCSVMHEALHNHYTQKSLSLSPG light 1: EIVLTQSPATLSLSPGERATLSCRASQSVNSNLNWYQQKPGQAPRLLIYHSTNRPRGIPARFSGSGSGTDFTLTISSLEPEDFAVYYCQQFDYFKEYNTFGQGTKVEIKRTVAAPSVFIFPPSDEQLKSGTASVVCLLNNFYPREAKVQWKVDNALQSGNSQESVTEQDSKDSTYSLSSTLTLSKADYEKHKVYACEVTHQGLSSPVTKSFNRGEC light 2: QTVVTQEPSLTVSPGGTVTLTCRSSTGAVTTSNYANWFQQKPGQAPRGLIGGTNKRAPGTPARFSGSLLGGKAALTLSGAQPEDEAEYYCALWYKQRWVFGGGTKLTVLGQPKAAPSVTLFPPSSEELQANKATLVCLISDFYPGAVTVAWKADSSPVKAGVETTTPSKQSNNKYAASSYLSLTPEQWKSHRSYSCQVTHEGSTVEKTVAPTECS |  |  |  | binds
